Experiments:
AncSZ = assay: phosphorylation enrichment, bacterial display (enrichment ratio); higher = better substrate or ligand; peptides without Tyr show the background
EPHB1 = EPHB1 (UniProt P54762); assay: as above
EPHB2 = EPHB2 (UniProt P29323); assay: as above
FGFR1 = FGFR1 (UniProt P11362); assay: as above
FGFR3 = FGFR3 (UniProt P22607); assay: as above
Fer (mouse) = assay: as above
Fes = Fes (UniProt P07332); assay: as above
Fyn = Fyn (UniProt P06241); assay: as above
Hck = Hck (UniProt P08631); assay: as above
Jak2 = Jak2 (UniProt O60674); assay: as above
MERTK = MERTK (UniProt Q12866); assay: as above
c-Abl (mouse) = assay: as above
c-Src = assay: as above
Grb2 SH2 = Grb2 SH2 (UniProt P62993); assay: SH2 binding enrichment of the phosphorylated peptide, bacterial display (enrichment ratio); higher = better substrate or ligand; peptides without Tyr show the background
SHP2-C SH2 = assay: as above
c-Src SH2 = assay: as above
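Throughout, for SH2 binding enrichment of the phosphorylated peptide, bacterial display: peptide library displayed on the E. coli surface as eCPX fusions, selected cells deep-sequenced, score is each peptide's frequency after selection divided by its frequency in the input.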
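Throughout, for phosphorylation enrichment, bacterial display: 11-residue human phosphosite peptides and single-mutation variants displayed on the E. coli surface, counted by deep sequencing, each peptide's frequency after selection divided by its frequency in the unselected input library; frequency after pTyr selection over input frequency; kinase dosed for 20-30% of maximal phosphorylation in three min.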

Chain of Fyn (P06241 whole entry, looked up): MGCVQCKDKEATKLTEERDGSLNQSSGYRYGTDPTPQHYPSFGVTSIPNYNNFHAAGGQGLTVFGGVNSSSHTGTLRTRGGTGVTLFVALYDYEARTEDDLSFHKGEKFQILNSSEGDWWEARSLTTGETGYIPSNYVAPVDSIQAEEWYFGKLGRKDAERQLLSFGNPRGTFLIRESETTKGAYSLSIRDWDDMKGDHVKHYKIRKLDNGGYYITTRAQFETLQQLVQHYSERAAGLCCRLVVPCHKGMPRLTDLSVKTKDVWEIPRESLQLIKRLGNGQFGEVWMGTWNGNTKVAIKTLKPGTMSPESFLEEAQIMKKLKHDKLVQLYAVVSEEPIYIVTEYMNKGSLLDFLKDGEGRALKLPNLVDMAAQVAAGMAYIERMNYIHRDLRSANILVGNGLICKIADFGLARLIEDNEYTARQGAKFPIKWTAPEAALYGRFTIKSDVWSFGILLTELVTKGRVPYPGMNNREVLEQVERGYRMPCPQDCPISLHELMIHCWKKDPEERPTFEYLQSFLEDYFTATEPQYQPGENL
Chain of EPHB2 (P29323 whole entry, looked up): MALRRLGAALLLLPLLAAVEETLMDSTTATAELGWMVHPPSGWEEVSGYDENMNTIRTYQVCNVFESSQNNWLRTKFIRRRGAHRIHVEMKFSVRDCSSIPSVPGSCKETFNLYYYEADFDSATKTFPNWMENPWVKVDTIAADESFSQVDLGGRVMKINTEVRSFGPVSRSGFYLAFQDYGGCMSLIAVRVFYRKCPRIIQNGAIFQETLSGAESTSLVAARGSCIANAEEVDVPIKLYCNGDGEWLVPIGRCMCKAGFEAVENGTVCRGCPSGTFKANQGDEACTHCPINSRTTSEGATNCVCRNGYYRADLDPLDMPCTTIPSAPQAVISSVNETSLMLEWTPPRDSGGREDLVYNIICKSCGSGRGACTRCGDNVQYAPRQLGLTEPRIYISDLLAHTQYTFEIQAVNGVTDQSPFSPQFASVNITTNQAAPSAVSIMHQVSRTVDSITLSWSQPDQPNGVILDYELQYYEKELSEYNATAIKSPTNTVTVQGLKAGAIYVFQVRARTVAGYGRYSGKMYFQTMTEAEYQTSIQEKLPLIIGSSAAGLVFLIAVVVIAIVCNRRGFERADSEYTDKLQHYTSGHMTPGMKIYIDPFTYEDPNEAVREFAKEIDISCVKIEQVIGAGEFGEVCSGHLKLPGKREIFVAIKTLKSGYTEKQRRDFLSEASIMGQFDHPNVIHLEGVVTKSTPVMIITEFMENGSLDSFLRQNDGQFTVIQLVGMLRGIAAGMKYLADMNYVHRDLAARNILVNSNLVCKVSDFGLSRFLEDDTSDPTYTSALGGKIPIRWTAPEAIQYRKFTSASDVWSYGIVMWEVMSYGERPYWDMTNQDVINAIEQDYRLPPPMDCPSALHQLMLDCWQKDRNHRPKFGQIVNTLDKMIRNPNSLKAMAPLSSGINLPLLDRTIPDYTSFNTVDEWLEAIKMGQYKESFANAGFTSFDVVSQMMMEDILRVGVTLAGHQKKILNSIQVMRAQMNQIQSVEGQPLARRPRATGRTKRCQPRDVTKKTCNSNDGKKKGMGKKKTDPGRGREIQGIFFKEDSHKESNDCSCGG
Chain of Fes (P07332 whole entry, looked up): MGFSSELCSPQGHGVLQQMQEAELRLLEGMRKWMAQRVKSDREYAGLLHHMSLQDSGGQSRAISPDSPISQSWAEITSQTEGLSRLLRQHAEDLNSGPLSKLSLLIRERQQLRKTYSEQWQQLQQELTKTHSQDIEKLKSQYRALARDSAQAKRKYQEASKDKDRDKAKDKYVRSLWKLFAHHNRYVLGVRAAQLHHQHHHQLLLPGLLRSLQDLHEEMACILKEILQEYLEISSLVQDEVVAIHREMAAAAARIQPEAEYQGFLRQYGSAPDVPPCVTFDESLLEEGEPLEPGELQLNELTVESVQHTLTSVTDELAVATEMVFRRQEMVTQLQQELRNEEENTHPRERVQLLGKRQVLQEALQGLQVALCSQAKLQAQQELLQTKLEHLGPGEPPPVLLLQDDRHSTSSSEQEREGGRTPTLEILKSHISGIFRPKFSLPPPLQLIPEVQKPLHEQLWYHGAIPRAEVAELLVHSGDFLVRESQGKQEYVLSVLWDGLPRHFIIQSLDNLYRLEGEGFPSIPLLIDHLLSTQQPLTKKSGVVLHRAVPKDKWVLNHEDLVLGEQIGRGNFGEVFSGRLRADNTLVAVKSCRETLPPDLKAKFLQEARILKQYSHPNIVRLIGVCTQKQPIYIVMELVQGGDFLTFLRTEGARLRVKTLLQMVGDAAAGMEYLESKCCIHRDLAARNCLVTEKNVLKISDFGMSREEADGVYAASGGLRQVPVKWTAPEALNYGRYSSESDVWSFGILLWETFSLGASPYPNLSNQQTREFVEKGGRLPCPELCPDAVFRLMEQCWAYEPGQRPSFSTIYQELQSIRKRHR
Chain of MERTK (Q12866 whole entry, looked up): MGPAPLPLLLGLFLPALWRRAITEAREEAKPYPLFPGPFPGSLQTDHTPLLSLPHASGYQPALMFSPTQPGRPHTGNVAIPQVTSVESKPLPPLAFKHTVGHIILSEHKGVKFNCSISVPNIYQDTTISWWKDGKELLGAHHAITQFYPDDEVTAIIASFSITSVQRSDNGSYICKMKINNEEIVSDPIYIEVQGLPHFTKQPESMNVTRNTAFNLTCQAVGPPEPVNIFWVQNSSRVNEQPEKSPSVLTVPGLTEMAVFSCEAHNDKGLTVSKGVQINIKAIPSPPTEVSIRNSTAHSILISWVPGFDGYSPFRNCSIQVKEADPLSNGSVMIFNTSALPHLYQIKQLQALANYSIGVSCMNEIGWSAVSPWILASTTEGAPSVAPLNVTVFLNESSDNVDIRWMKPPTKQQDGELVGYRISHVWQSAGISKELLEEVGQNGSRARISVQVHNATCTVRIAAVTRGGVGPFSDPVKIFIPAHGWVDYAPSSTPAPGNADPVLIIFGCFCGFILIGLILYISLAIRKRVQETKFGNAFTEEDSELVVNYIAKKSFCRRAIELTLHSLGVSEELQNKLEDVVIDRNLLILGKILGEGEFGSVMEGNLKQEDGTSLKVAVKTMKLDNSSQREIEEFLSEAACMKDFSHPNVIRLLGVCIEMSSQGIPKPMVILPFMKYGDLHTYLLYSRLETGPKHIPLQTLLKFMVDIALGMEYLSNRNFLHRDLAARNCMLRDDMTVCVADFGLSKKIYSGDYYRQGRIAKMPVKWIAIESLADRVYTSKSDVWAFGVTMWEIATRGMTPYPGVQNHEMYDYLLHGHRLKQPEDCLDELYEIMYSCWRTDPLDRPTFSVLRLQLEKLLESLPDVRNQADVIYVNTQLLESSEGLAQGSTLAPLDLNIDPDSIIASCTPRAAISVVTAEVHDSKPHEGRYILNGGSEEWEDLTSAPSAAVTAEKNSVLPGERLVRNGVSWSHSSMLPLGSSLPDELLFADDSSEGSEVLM
Chain of Hck (P08631 whole entry, looked up): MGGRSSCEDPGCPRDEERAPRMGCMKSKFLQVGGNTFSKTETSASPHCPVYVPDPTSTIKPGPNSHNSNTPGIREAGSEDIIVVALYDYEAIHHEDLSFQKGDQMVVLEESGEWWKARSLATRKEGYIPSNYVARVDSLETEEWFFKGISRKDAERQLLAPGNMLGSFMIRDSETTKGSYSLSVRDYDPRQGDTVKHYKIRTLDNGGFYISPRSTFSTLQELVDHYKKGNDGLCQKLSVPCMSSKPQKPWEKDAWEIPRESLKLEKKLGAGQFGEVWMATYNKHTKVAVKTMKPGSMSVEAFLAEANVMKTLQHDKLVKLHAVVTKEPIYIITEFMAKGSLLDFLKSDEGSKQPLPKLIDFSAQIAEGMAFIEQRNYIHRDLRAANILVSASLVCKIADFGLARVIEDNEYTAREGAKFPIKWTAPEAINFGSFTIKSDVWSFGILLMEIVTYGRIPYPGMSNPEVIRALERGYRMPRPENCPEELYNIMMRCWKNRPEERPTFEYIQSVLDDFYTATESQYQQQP
Chain of EPHB1 (P54762 whole entry, looked up): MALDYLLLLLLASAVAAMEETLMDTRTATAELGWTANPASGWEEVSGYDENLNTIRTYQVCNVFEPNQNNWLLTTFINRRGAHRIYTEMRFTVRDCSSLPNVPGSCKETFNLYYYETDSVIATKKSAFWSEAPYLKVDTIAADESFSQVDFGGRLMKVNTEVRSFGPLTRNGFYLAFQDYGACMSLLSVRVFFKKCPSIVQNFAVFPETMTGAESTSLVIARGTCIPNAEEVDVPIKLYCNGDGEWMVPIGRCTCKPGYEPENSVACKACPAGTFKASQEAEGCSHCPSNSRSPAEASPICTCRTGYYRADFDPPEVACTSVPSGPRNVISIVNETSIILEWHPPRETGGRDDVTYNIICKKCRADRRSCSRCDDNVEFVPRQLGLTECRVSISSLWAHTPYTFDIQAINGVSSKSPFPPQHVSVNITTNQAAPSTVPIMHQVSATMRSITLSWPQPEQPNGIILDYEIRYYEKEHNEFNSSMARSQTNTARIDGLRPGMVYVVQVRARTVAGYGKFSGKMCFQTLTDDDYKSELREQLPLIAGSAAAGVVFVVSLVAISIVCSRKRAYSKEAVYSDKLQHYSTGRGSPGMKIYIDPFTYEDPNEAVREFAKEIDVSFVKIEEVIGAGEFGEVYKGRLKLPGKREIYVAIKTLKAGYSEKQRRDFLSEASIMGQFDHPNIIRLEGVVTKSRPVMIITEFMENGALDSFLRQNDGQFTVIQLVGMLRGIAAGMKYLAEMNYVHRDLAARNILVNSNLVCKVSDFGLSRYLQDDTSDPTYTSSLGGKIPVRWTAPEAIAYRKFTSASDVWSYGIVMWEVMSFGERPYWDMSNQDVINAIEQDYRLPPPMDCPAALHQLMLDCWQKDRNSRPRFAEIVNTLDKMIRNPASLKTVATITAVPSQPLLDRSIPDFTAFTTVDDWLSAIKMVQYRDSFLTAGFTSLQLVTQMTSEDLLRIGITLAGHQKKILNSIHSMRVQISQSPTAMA

SH2 binding enrichment (Grb2 SH2)	SH2 binding enrichment (SHP2-C SH2)	SH2 binding enrichment (c-Src SH2)	Sequence	phosphorylation enrichment (AncSZ)	phosphorylation enrichment (EPHB1)	phosphorylation enrichment (EPHB2)	phosphorylation enrichment (FGFR1)	phosphorylation enrichment (FGFR3)	phosphorylation enrichment (Fer (mouse))	phosphorylation enrichment (Fes)	phosphorylation enrichment (Fyn)	phosphorylation enrichment (Hck)	phosphorylation enrichment (Jak2)	phosphorylation enrichment (MERTK)	phosphorylation enrichment (c-Abl (mouse))	phosphorylation enrichment (c-Src)
0.756	0.796	0.659	FADIAYIFRHG [PAH_Y166_N167I_YF]	0.908	0.715	0.487	0.637	0.626	0.507	1.03	0.508	0.449	0.97	0.458	0.579	0.415
1.78	0.785	0.597	RELSWYRGQRP [HESX1_Y106_R109Q]	0.962	0.581	0.661	0.506	0.541	0.376	0.901	0.505	0.552	0.956	0.488	0.38	0.401
0.94	0.77	0.742	FKEQGYHRLPP [RIN1_Y681_YF]	0.441	0.561	0.298	0.58	0.528	0.363	0.679	0.457	0.456	0.877	0.377	0.345	0.37
0.95	0.732	0.346	EFLQKYKGFKI [SYNE1_Y6953_YF]	0.773	0.372	0.477	0.393	0.491	0.433	0.752	0.376	0.411	0.775	0.395	0.549	0.397

The next lines start with the sequence.

Sequence	SH2 binding enrichment (Grb2 SH2)	SH2 binding enrichment (SHP2-C SH2)	SH2 binding enrichment (c-Src SH2)	phosphorylation enrichment (AncSZ)	phosphorylation enrichment (EPHB1)	phosphorylation enrichment (EPHB2)	phosphorylation enrichment (FGFR1)	phosphorylation enrichment (FGFR3)	phosphorylation enrichment (Fer (mouse))	phosphorylation enrichment (Fes)	phosphorylation enrichment (Fyn)	phosphorylation enrichment (Hck)	phosphorylation enrichment (Jak2)	phosphorylation enrichment (MERTK)	phosphorylation enrichment (c-Abl (mouse))	phosphorylation enrichment (c-Src)
FRNSLYAPDYS [FAM92A_Y226]	0.79	0.754	0.568	0.723	1.23	0.775	0.66	0.619	0.555	0.725	0.734	0.88	0.58	4.83	0.493	0.779
SLDLSYFPTSS [EMD_Y181_YF]	0.8	1.1	0.414	0.879	0.426	0.513	0.59	0.635	0.353	0.793	0.496	0.432	2.93	0.56	0.632	0.502
PPKFFDTRKLL [CYBB_Y41_Y41D]	1.54	1.17	0.92	0.992	0.383	0.556	0.365	0.38	0.941	0.639	0.518	0.51	0.663	0.796	0.759	0.614
KGIDRYNPENL [EIF3K_Y21]	0.861	0.785	0.524	0.583	0.349	0.446	0.493	0.564	0.372	0.736	0.42	0.384	0.449	0.414	0.456	0.358
EQLGEYKFQNA [ALB_Y425]	0.793	0.416	0.518	0.824	0.461	0.415	0.471	0.5	0.351	0.77	0.394	0.415	0.715	0.324	0.774	0.367
QLYGPYLRIHA [BSCL2_Y213_A212P]	1.29	1.54	1.07	0.87	0.897	2.03	0.344	0.73	0.596	1.12	2.04	2.83	0.974	0.538	0.612	2.52
EAKENYGKTLK [CHL1_Y291_T287A]	0.754	0.503	0.432	0.655	0.348	0.314	0.456	0.441	0.305	0.732	0.338	0.328	0.52	0.327	0.495	0.424
GNHVSYFQSDG [CACNA1C_Y1757_YF]	0.84	0.706	0.618	0.656	0.373	0.427	0.495	0.488	0.369	0.791	0.458	0.445	0.636	0.443	0.517	0.42
MGCVNYGAYIN [GLB1_Y485_R482C]	1.44	0.606	0.569	1.32	0.793	0.83	0.469	0.851	0.571	1.37	0.578	0.572	1.56	0.483	1.39	1.08
LSSETYVKSFT [F5_Y2149_M2148T_YF]	0.798	0.74	0.587	0.969	0.789	1.7	0.743	0.735	0.511	1.14	0.665	0.858	1.06	0.379	0.595	0.512
